Assay: label from the status in PepcDB records
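Also: failed if final PepcDB status was selected cloned or expressed and not failed if soluble or beyond.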

With “MKANLERVPIRIGSSWRYKKIDGVEKNCHWHFHNEYELVLFRKNNAKGMVGHFERVIEKNTLWLIPPKMPHAIELLEEKELQCESHIIWLPKEWVENMIFSCTELRRMGELFKRSSNGLCFSTSTAEKVYQLIEKLFKDSILDDLGYLIQILGCLCSDKETRPLQLFSKQEASDKEGKEK” as the sequence, how does the protein production read?
The protein production was “failed”.

Which protein production does the source give for “MKASIEQLEPYVPEKPLATLQAELGLTELVRLSANENPYGTSPKVATAVKNWDFTQSNRYPDADAQELRQAVAQQQGIDPNSIVFSVGLDEMIVMLSRTFLATNDQVLVSAPTFSEYGLHAEIEGGQLISVPTLPNDHVNFEGLMKAITPHVKMVWLCNPNNPTGTVESLAAIEAFVQQVPPETMVLIDEAYIDFTPGAAQVTAMQLPAKYPNVVVMRTFSKAYGLANFRIGYAVFNTKYAATMQTIRLPYNVNSLAQVAALAAIDDPNFVKQTVQKNATERAKWMAFFDDQGVTYDQSGANFIFFKYPSATQLADYLVHHGYLIRTGLRPGWLRLTVGTANDNQQLQQLIREFKA” here?
Its protein production is “failed”.

With “MKAVTTSPSDPPDPFDPLDPVDPLASTKPEVDVVLPCLDEADALPWVLARIPPGWRALVVDNGSTDGSAEIARRLGATVVPETRRGFGAACHAGLTAATADIVCFCDCDGSLDPSLLVPFVREVRDGAADLVLGRRRPHGRGAWPAHARAGNLALARMLRRRTGLRLHDLGPLRAARREPLLALGLTDRRSGYPLQMVVRAADAGWRIAEHDVPYLPRTGVSKVTGTWRGTWQAVRDMSRVLAEPAQDGPPESGSLSSSQGGSSQLEHHHHHH” as the sequence, how does the protein production read?
The protein production was “failed”.

Which protein production does the source give for “MKAYALVGGPTDLWLHDIKKQLTEAKQNNDLIFGVDRGALFLEELGIIPDVAIGDFDSLQAKDLSRIEKTVKDIRYSNPIKDWTDSEIMVQTVFKDYLADKLIILGASGGRIDHFLINLLMWLNPPINQFAQRVEIIDNHNSIVFFNPGVHIIKKKPDYPYIGFATLSETEDFNISGARYDLNDYSSTYPRVFSSNEFLPNSDYFEISLKKGMIAAIYSKDINRFHNLLEHHHHHH” here?
Its protein production is “not failed”.

Which protein production does the source give for “MKAYLGLYTARLETPARSLKEKRALIKPALERLKARFPVSAARLYGLDAWGYEVVGFTLLGNDPAWVEETMRAAARFLAEAGGFQVALEEFRLEAFELDGLL” here?
The protein production was “not failed”.

Which protein production does the source give for “MKCRGHKNSYFCQDSNEIKSANSNSPLCGDHSFFEMATKQRKGSRSSGRNTSSANTRKGGNFLRRIFITPIRDTFSRDKVGFVFGAILLAIALYTTIAIGSFFVHGGVDQSVVRDAPVSDILLGRAPVANLCGIRGAVWSEWLMNGLFGFGTLFLLFCVFSLSLKLMGVVKRISVVKRLIFCGVMTFWTSLAAAFIYKLSGLEGFLRWGGMHGQEWTLFLERNIGKAGLIIVLLVLAVIIAVVVRSECMGFFRRLLGLSWISIPKLPKKERKNNHDESENESLGNGYDTGESENLSGYLNNSEYEDGPAGESADDPDDYIPPHKEEGENDSSQSIQMGSMTVELAQEEEKADEALLAEIKTDPRMDLASYKFPSVDLLTQYDLQQPPIDMNEIEENQKRIIATLDSFKIHVTPIKATVGPTVTLYEVAPDSGIKISRIRNLEDDIAMSLKAVGGIRIIAPMPGKGTIGIEVPNRKPQTVSMYSVLTSKKYQESDMDLPVALGKTITNEVFIFDLCKMPHLLIAGATGQGKSVGLNAMITSLLYKKHPAELKFVLVDPKMLEFAVYEAIERHYLAKLPDEDRAIVTDMTKVVPTLNSLCIEMDNRYRMLTEARVRNIKEYNDQIISGKLSRLHGHKFLPYIVLIVDEFADLIMTSGKEVERPITRIAQKARAAGIHMVVATQRPSTDIITGIIKANFPARIAFKVFSMIDSRTILDQPGANQLVGRGDMLFYQGKDTVRLQCAFLDTPECEAVTHHISLQESYTSAYELPEYVPEGEEGGPKAFNPQEKDPLFEEVARMVVNSQQGSTSNIQRKFNIGYNRAGRLMDQLEGAGIVSPQDGSKPRQVLIQDEMSLERLFETLR” here?
Its protein production is “failed”.

With “MKDIIRFILRLVQNPIVLAILWFGVAIRGFWVSWTEGLANNYLIFSRSFFHALEQTPLYVEYPKEYFDLFLYGIPFTLLIAPFSIMPTMVGSALWSLCNALLLYFAIKKLEFEKWKTAIIVWLSYNGLYLSVVTQQYNAAVAAFILFTFILVERKKDFWAALMIVLGTLTKIYGIVGLAFFLFSKRKLYFLWGILFWAFVLFVVPMFYTSPQYVFDSYKEWVSILVVKNDVNELSFYQNISLLGMVRKITHAVEYSDMWLIIPGIVLFLLPYLRIGQYENRNFRLSFLASVLLFMVLFSTGTEECGYVGALIGVGIWYVSTPTYKKSFVLNTCLLLFCFALTAASSSSILFSKHFRTEYITSFALKALPCAIIWFKIIWEQLTQDYTSRTPTPFLHKKDDERIDVILPCYNPHEGWEQQLIEKHKELEGMLNGYNIRFIVVNDGSKRGFTEEAVLRLTNNLPNTIIVDNKINQGKGAAVRDGIAHSDSELALYTDYDFPYKIESVCQVIKYLEEGYDVVVANRNHTYYSQLSTRRKLASHASRFLNFMLLGLTHTDTQGGLKGFNCKGKAFLASTRIKQFLFDTEFIYKASLDDTTFIKEVPVDLRGEVMLPDMKKGVFVNELKNLLMICWRG” as the sequence, how does the protein production read?
Its protein production is “failed”.

Which protein production does the source give for “MKDNPISPTIPLDQDGVHHGFLKLPYSRDDSAWGSVMIPITVIQNGAGKTALLTGANHGDEYEGPVALQELAATTRAEDVTGRLIIVPYFNYPAFRASARTSPIDRGNLNRAFPGRPDGTVTQKIADYFQRTLLPMADVAVDFHSGGKTLDFVPFAAAHILEDKVLQDACFAAMQAFNAPYSVQLLEIDSEGMYDTAVEEMGKVLVTTELGGGGMSTARSNAIAKKGLRNVLIHFGILQGEMQIDPSVTLDMPDGDCYLFSEHDGLFEIMIDLGEPVQEGDLVARVWSPDRTGEAPVEYRARRSGVLISRHFPGMIKSGDCAAVIGVVEG” here?
Its protein production is “not failed”.

Which protein production does the source give for “MKDPRDFVPEDLSDLETAMLEMAEKDIRKAYTITDKQERYAALDALKTEIINKFMPETEEDCKFSVDQIATVFKQLQAKIVRSNILDTKKRIDGRDLSTVRPIQSEVGILPRTHGSALFTRGETQAIVVATLGTGEDEQYIDSLTGLEHHHHHH” here?
Its protein production is “not failed”.

Which protein production does the source give for “MKDSIDFGNMEIPRLFRKLLIPTVLGMVFSAVFVITDGIFVGKGIGSDALAAVNITAPLFMITTGIGLMFGVGASVVASIHLSQGKRKVASINITQALAFSALLILVLSALCCYFAEPIGRLLGSSERLLPLVVEYMNWYVPFLVFYLLLSAGMFYIRLDGSPNYAMMCNAVSAIINIILDYVFIFQLGWGMMGAAFATSLGTMVGGLMTLIYLLRFSRNVGIYRIKLSRKSMRLTCRNIGYMIRLGSSAFISEASIASMMFLGNYVFISHLGESGVAAFSIVCYFFPIIFMVYNAIAQSAQPIISYNFGQQNPGRVARTIRLALKTALGCGIFFFAATLVFNHQIVGLFIDKSYQAYDIAVNGIPYFAVGYLFFALNIVGIGYYQSIERARRATVITLFRGTLFMLAGFLLLPPVLGVRGIWLAVPLAELLTLLLIIGIYLKDSFAVRR” here?
The protein production was “failed”.

With “MKDSVDCPSILPTDRTSVLSETSTLVGSSSHVYSRHAPMNSYHNSMNSNIYHSPKASSPLVSYKTSSPVLLKRATAPVLPSFKPKEQRYNKPQGCSLITAVELGKIIETLPDEKVLLLDVRPFTEHAKSIITNSIHVCLPSTLLRRKNFTFSKLLDNLTPSEQSVLKSKLAIDNLRIIIYDSTANQTESSVSLPCYGIASKLIEFDTNVKKTVSILMCGFPQFKILFPDHINTNTFNSDCISSAEPKSPKTNLMNSLHNTAPHMTATTPLSSPQMNLKLKVPDDSRSDHSNFSSSPSPRNVLSDSPMSSSSPISALFKFQLPAPQTNINQMFKFSQNEEIMGLETYLSAVNIKEEHERWYNNDSAKKSLQNFQFPKNQNSLEKDTNKDKLGFQIRYENLSKNYEKEVIDSVIPEWFQHLMSIPKIELVSQFQKLDFLEKRRLNHSVSFRKKENSFILEKPSSYPEQLTSTSSSTIMPPKFPDVNKVQKRSHSQPIFTQYSKYKSMLSLESDSDSESDDVIISSGVELGAKNRYKDIFPYEHSRVILKKGLQSSKGIKHSHSTSDGGILDNYINANYLSLPRFSVEQNSSFQTTTTTTRRVRYIATQAPMPSTVHDFYTCILNNGVPLVLSLTNDFENGIEKCYRYWQEGNYNGIHVKLLEKKILKMPSTTSMRKNTMGTQNSSLYSAGVQGNSSNYSTDNDNDNDNNNNNNNNSNIPVTAAACDDDDDDDDDAILIRQILLTYHDQEKPYELLQIQVKNWPDLGTLLNPISILQAINVKNHIIDTLFARNYYQNDQLPTILVHCSAGCGRTGTLCTIDSILSNFEMFEMLQKEFVKLKYPAKLFDPISWTINIFRKERISMVQNINQFIFIYDCLLFYFRLRLDDITERTDGDGSNKDNISLSALIEQIEKLEILQTFVDDKLKELPQ” as the sequence, how does the protein production read?
Its protein production is “failed”.

With “MKDVLAEYASRIVSAEEAVKHIKNGERVALSHAAGVPQSCVDALVQQADLFQNVEIYHMLCLGEGKYMAPEMAPHFRHITNFVGGNSRKAVEENRADFIPVFFYEVPSMIRKDILHIDVAIVQLSMPDENGYCSFGVSCDYSKPAAESAHLVIGEINRQMPYVHGDNLIHISKLDYIVMADYPIYSLAKPKIGEVEEAIGRNCAELIEDGATLQLGIGAIPDAALLFLKDKKDLGIHTEMFSDGVVELVRSGVITGKKKTLHPGKMVATFLMGSEDVYHFIDKNPDVELYPVDYVNDPRVIAQNDNMVSINSCIEIDLMGQVVSECIGSKQFSGTGGQVDYVRGAAWSKNGKSIMAIPSTAKNGTASRIVPIIAEGAAVTTLRNEVDYVVTEYGIAQLKGKSLRQRAEALIAIAHPDFREELTKHLRKRFG” as the sequence, how does the protein production read?
The protein production was “not failed”.

With “MKEDIVSGTVKRVERHGIIVEVVAGKLDALIPRDQMIPRENFRSGDRIRALFLRVEEIGNTGRKQVILSRTSGLEHHHHHH” as the sequence, how does the protein production read?
The protein production was “not failed”.

Which protein production does the source give for “MKEDKKLVKQARQNFRSNLKSARMHYRKEVRTLKQTVPKKGRFRKSAKNSLFQEKKTELKGNLLSSQKEAEEKFIKEITYVSPRLLKAKEIKNYRLPQAQERLRTARKHLSEVKLSEKQQVVNPKFTFQKENPSLKSRFQFHQEKSFDRLSAEKDVSSAKREVKQLKKVQKTKKNSTKVKAGLGLAASESLDLIAQEDDLDGLRTMKDTSLKARRYGRFTYQAGKVAVKSGQTGVRFTKTKFSHGKERFQNFKKGKGFTRQKPLKPRRRYQTFLNHVRKQSVAGFKGIVQAIKGSMTFFSVLAGNPLTWIVSGILLILLLMMSFFMSVSGSSVIQQDEIELSKSYTHMTWEDAEHTRTNDKGITFYTKIDEVMVYMNHQYQDYKLDDFIETSGTTYKEFLSQLWSDLNGGDSIKSMSDLYKEPAYKLSDEDQEELNELTEEGNYLALQELDNPFQGQTDEDSLSMTYRYGYEVIDEKPTLHHHIILEAKEGQVIVAPMDGKVSLDGENVVLTSGKGVNKTKLTLFGIHSGRVSENQQVLAGDIIGQTKDGTGLKVTYQKVDDDTDKLVYVNPAFYFPKVIQVQTTILPTIGQFGGDEFERAKAIYDYLKSKGATNQAIAAILGNWSVESSINPKRAEGDYLSPPVGATDSSWDDEGWLTLNGPTIYNGRYPNILKRGLGLGQWTDTADGSRRHTLLLEYAKGKHQKWYDLGLQLDFMLYGDSPYYTNWLKDFFKNSGSPASLAQLFLIYWEGNSGDKLLERQTRASEWYYQIEKGFSQPNGGTAQSDPKALEAVREDLFENSIPGGGDGMGYAYGQCTWGVAARINQLGLKLKGKNGEKIPIISTMGNGQDWVRTAASLGGETGTSPQEGAILSFAGGGHGTPTEYGHVAFVEKVYPDGSFLISETNYNGNPNYTFRKLSGVDSSLSFAYTTK” here?
The protein production was “failed”.

With “MKEFVHDYLAASVENEEEGGRMRWYPWHSAEYRFNHILNVVDIATKIARKEGANVDVTRVAALFHDIAKLEAEQDLHAEAGARIAREYLRAHGDYPESFIEQVCSAVEVHSYQGSLDDLPLEVQCLIEADILDKVGANGTALMLLRMGYESRTHMDAAEMVDRVIERGEDARERVQSDTAESLVHQRLKRTRWFQEWLTMEVAEMAVEDDLDDVATGMGDSLEHHHHHH” as the sequence, how does the protein production read?
The protein production was “not failed”.

From a protein production outcome set (Wang et al. 2014)
